In US20190352664A1, “COMPOSITIONS AND METHODS FOR CONTROLLING GENE EXPRESSION” (priority 2017, published 2019):

How the values were obtained:
Arabidopsis = experiment: Ribo-seq and RNA-seq global translatome profiling (translational efficiency TE, mORF/uORF ribo-shift) upon elf18 treatment; type: in vivo; design: key to score (Ribo-shift): Up: ribo-shift up (i.e., increased mORF/uORF ratio); Down: ribo-shift down (i.e., decreased mORF/uORF ratio); details: elf18 vs Mock; for score (TE change): translational efficiency fold change, listed as shows 5′ UTR of the transcript
LUC reporter = type: in vivo, Oryza sativa cultivar ZH11
LUC, GFPER, TBF1-YFP = experiment: Transient expression of uORF-controlled LUC, GFPER and TBF1-YFP; type: in vivo, N. benthamiana
dual luciferase reporter = experiment: Dual luciferase assay (LUC/RLUC), transient expression; type: in vivo, N. benthamiana; details: 5′ leader sequence reporters

B1: AT1G12580.1: 5′ UTR of transcript; phosphoenolpyruvate carboxylase-related kinase 1 (nucleic acid)
DNA: GAGAGAGGACTGGGTCTGGTCTCTTCGCTGCAACCTATAGCTGTTGTTTGCTCTTCGACGGGATTCTCACTACTCTTTTGCCAAAAAAAAGAGATCGGAGGTTCCGAAGGTGAATGCAGCTTGCGATTTCATAGAAAAGAAGATTCGTTTGCTGGATTAGGCTTATTTGTGTATCATAGCTTTGAGGTTTTAACTGAGATTTATTGATAGTGGAACTTAGGTTTTCGAGAGGTGTGAACAGTTGGGTAT
score (TE change) (Arabidopsis): TEup (448 had increased TEfc)

B2: uORFsTBF1: 5′ leader sequence of TBF1 with two pathogen-responsive upstream open reading frames (nucleic acid)
DNA: TCTAGAAACAGCATCCGTTTTTATAATTTAATTTTCTTACAAAGGTAGGACCAACATTTGTGATCTATAAATCTTCCTACTACGTTATATAGAGACCCTTCGACATAACACTTAACTCGTTTATATATTTGTTTTACTTGTTTTGCACATACACACAAAAATAAAAAAGACTTTATATTTATTTACTTTTTAATCACACGGATTAGCTCCGGCGAAGTATGGTCGTCGTCTTCATCTTCTTCCTCCATCATCAGATTTTTCCTTAAATGGAAGAAACCAAACGAAACTCCGATCTTCTCCGTTCTCGTGTTTTCCTCTCTGGCTTTTATTGCTGGGATTGGGAATTTCTCACCGCTCTCTTGCTTTTTAGTTGCTGATTCTTTTTCCTTCGACTTTCTATTTCCAATCTTTCTTCTTCTCTTTGTGTATTAGATTATTTTTAGTTTTATTTTTCTGTGGTAAAATAAAAAAAGTTCGCCGGAG
translation of the LUC reporter in rice (LUC reporter; 35S:uORFsTBF1-LUC vs 35S:uorfsTBF1-LUC): could suppress translation of the reporter in rice
LUC mRNA levels in rice (LUC reporter; in vivo): without significantly influencing mRNA levels
suppression of cytosol-synthesized LUC and ER-synthesized GFPER (LUC, GFPER, TBF1-YFP; 35S promoter, vs mutant uorfs (ATG to CTG)): largely suppress
mRNA levels (LUC, GFPER, TBF1-YFP; LUC and GFPER): without significantly affecting mRNA levels
cell death induced by overexpression of TBF1 (TBF1-YFP) (LUC, GFPER, TBF1-YFP; vs 35S:uorfsTBF1-TBF1-YFP): tight enough to prevent cell death

B3: ZIK3: R-motif-dependent gene; 5′ leader sequence tested in dual luciferase reporter (nucleic acid, listed as Arabidopsis thaliana)
DNA: ACTTGTTTCCTTATATATTCTTCTCCCTTTAAACATTTAATCTTTTCCTCTTCTACCATCTCCACAAATTCCAAACATCTCTCTCTCTTTCTCTCTCACACACAAAATTGCAGAAGAAGAAGAGTC
modifications: listed as DNA, chemistry not fully specified
TE when PAB2 was co-expressed (dual luciferase reporter): lower TE

B4: AT5G61010.1: 5′ UTR of transcript; exocyst subunit exo70 family protein E2 (nucleic acid)
DNA: TCTTTCCCTTCTTCTTCCCCAATAATCTCGCTGAAACTCTCTTGCTCTTGCTTCTAAAAATCTGTTCTTTGAGACTTTGATCACACAGTTATCAAAATCATAATCTCTTCTTTCCTGGTTTTTTTTTTTTTCTTCTTCTTCTTCCCGTTTCACGGTACGTTTACTCTGTTCGATCACCGAGTGTATGATAAAATGTTTCTGTGAAATCAAATAACATATCACTTTCTAATAAACATCAAAATTTCTCCTTTTTTACAGAAACAAGAAGTTTTTTTGGGAAAGCCGTTGACTTGACTTTTTCTTTGGGGTGTTGTGTGGGAGCTTATAGTATGGTACCATAAGTGGGAGCTTATAGTTTGGGGTGTTGTGTGGGAGCTTATAGTATGAGGAAAAATGTTAGATTTGAAGAATGCTTCACTGATTTTTTACCATAAGTATGTCAACTGGATTAAGCTTAAGTAGTAATGGTTTTTACTATGTTCATGTGGGGATTTCTCTTCCTCTCTGTTTACTTCATTCCGAGATGACTTGAGATTTTTTCAAAGTATAGTTCTTGGAGTTAAGCTTACCTAGTAATCACTTTATATAACATCCCTTCGTTTACATTTGTGCTTTCACCTGGAAACACTTTAGACTTTTCTCTCTTCTGCCGTGTGTATTTAGTTGTCTAGTCAAATTTAAGTTGAGTTTAGGCTCTAGTCTTTGGTTTTGGTT
score (TE change) (Arabidopsis): TEdown (389 genes displayed decreased TEfc (|z|≥1.5))

B5: AT5G61010.1_3: uORF of AT5G61010.1; peptide SEQ ID NO: 38 (nucleic acid)
DNA: ATGTCAACTGGATTAAGCTTAAGTAGTAATGGTTTTTACTATGTTCATGTGGGGATTTCTCTTCCTCTCTGTTTACTTCATTCCGAGATGACTTGA
modifications: listed as DNA, chemistry not fully specified
score (Ribo-shift) (Arabidopsis; shift of mORF/uORF ratio, per uORF): Down

B6: AT1G30330.1: 5′ UTR of transcript; auxin response factor 6 (nucleic acid)
DNA: CTTCTTCTTCTGATTCTCATTTCAAATAAGAGAGAGAGAGAGAGAAGTAAGTAAAACTTTAGCAGAGAGAAGAATAAACAAATAATTATAGCACCGTCACGTCGCCGCCGTATTTCGTTACCGGAAAAAAAAAATCATTCTTCAACATAAAAATAAAAACAGTCTCTTTCTTTCTATCTTTGTCTATCTTTGATTATTCTCTGTGTACCCATGTTCTGCAACAGTTGAGCAAGTGCATGCCCCATATCTCTCTGTTTCTCATTTCCCGATCTTTGCATTAATCATATACTTCGCCTGAGATCTCGATTAAGCCAGCTTATAGAAGAAGAAACGGCACCAGCTTCTGTCGTTTTAGTTAGCTCGAGATCTGTGTTTCTTTTTTTCTTGGCTTCTGAGCTTTTGGCGGTGGTGGGTTTTTCTGGAGAAACCCAAACGACTATCAAAGTTTTGTTTTTTACAATTTTAAGTGGGAGTTATGAGTGGGGTGGATTAAGTAAGTTACAAGTATGAAGGAGTTGAAGATTCGAAGAAGCGGTTTTGAAGTCGGCGAGACCAAGATTGCGAGCTTATTTGGCTGATGATTTATTTCAGGGAAGAAGAAATAAATCTGTTTTTTTTAGGGTTTTTAGATTTGGTTGGTGAATGGGTGGGAGGTGGAGGGAAACAGTTAAAAAAGTTATGCTTTTAGTGTCTCTTCTTCATAATTACATTTGGGCATCTTGAAATCTTTGGATCTTTGAAGAAACAAAGTTGTGTTTTTTTTTTTGTTCTTTGTTGTTTGCTTTTTAAGTTAGAATAAAAA
score (TE change) (Arabidopsis): TEdown (389 genes displayed decreased TEfc (|z|≥1.5))

B7: AT1G59700.1: 5′ UTR of transcript; glutathione S-transferase TAU16 (nucleic acid)
DNA: ATTGTGTGGTGACAAGCAACACATGATATGTCCGTTTAGAAACAGACAAAATAAGAAGAAGAAGAAAGAGTCGTGGAGGATTCTTCATTCTTCCTCATCCTCTTCTTCACCGATTCATTAGAAACCAAATTACAAAAAAAAACGTCTATACACAAAAAAACAA
score (TE change) (Arabidopsis): TEdown (389 genes displayed decreased TEfc (|z|≥1.5))

B8: BET10: R-motif-dependent gene; 5′ leader sequence tested in dual luciferase reporter (nucleic acid, listed as Arabidopsis thaliana)
DNA: TTAGGGACGGGACACTAGAGAAGGGAGGGCAGAGAGCGATTTTGTTCTCTCTCTACTTCTCGGTCGTCTTCTTCGTCTCCACTCTAGGGTTTTACTCTATCTTCTTCTTCATCATCATCTTCTACACCAATCTCTAGCGTTAATCTGTTTCTGCTGGAGAAGATTTACGCTTGTTCCTCGGTTCTCTTACTTCTGCTCCGGTTCGATCGCTTGCTAAGTGTTTCGAGTTGGTTCGCACTTCGGTGGGCGATATC
TE when PAB2 was co-expressed (dual luciferase reporter): lower TE
